Molecular target: MVN-DAVEI4-3Trp (not stated | HIV-1 (strain not stated))
Experiment: ELISA

HIV-1 YU2 gp120 (from UniProt P35961 32-498) (natural protein)
EC50: 79 nM
